The results in this text go back to US20080050363A1 (published 2008).

The IC50 is the concentration that inhibits the measured activity by half. Read a low IC50 as greater potency in that assay. In general, Kd refers to the constant that tells how readily two partners part at equilibrium. A high value points to lower affinity.

Ends that are not written are not given here.

Experiment [1] addresses human OGF receptor (OGFr), native, in nuclear preparations of human cells and tissues (human) (UniProt Q9NZT2). Put plainly: competition with [3H]-[Met5]-enkephalin, PANC-1 nuclear homogenates; IC50/Kd.
For experiment [2], the target named is T1, human OGF receptor (OGFr), native, in nuclear preparations of human cells and tissues (human, UniProt Q9NZT2 1-662, limits assumed).
T1 construct: Native receptor in nuclear homogenates (placenta, PANC-1, MIA PaCa-2, Capan-1, BxPC-3, pancreatic tissue, head and neck tissue); also called zeta opioid receptor; receptor for OGF
T1 chain: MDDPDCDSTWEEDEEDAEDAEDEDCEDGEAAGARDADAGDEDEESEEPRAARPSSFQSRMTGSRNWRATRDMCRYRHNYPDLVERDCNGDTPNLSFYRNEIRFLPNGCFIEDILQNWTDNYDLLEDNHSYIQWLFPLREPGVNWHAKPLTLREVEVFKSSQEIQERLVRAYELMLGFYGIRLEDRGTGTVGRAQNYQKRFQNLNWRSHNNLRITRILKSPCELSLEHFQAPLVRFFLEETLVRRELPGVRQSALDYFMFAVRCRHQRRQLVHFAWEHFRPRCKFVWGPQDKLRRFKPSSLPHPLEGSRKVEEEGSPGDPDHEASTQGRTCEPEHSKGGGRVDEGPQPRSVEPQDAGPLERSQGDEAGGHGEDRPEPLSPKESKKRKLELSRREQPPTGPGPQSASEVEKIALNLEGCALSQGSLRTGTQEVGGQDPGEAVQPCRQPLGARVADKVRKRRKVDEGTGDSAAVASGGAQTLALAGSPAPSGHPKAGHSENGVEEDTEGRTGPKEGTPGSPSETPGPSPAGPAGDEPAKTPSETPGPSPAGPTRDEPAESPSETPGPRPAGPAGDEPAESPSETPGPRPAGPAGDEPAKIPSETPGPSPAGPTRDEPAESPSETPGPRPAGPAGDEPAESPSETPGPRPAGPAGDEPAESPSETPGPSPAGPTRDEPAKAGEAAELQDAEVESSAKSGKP
The experiment is described as above. How it is done: Each concentration was run in triplicate and every compound was tested twice.
Competition experiments using 1 or 2 nM [³H]

Experiment [3] concerns the target T1, human OGF receptor (OGFr), native, in …. Put plainly: radioligand saturation binding, nuclear-enriched fraction of human placenta.
Experiment [4] has as its target T2, 12-GST fusion protein (GST fused to rat OGFr, all 580 amino acids, from clone #12) (rat, UniProt Q9QXY4 1-580).
T2 construct: The order GST then OGFr follows the pGEX-3X vector; also called purified fusion protein from the rat OGFr cDNA clone #12; not shown: glutathione-S-transferase (GST) of the pGEX-3X expression vector
T2 sequence: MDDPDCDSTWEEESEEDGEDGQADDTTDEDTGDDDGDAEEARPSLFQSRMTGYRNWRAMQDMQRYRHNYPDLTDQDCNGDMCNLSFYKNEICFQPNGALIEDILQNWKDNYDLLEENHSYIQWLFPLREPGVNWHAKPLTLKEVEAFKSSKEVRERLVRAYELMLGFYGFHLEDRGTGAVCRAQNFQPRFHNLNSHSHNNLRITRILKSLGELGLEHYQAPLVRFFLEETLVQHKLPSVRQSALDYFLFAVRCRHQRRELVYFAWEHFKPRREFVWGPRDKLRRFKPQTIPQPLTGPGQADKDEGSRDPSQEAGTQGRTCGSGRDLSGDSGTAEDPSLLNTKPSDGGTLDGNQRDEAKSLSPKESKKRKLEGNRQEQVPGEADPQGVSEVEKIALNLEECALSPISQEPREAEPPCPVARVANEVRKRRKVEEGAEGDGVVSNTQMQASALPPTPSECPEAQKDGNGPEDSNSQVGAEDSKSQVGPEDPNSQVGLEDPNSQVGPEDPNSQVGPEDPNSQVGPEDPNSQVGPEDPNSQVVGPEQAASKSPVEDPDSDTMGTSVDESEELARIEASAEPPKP
Put plainly: [3H]-[Met5]-enkephalin saturation binding, filter assay, purified 12-GST fusion protein, 22 C. The procedure:
Fusion proteins (80-120 ng/tube) were incubated for 30 min with shaking at 22° C. Non-specific binding was measured in the presence of unlabeled [Met⁵]-enkephalin. In some assays, NTX (10⁻³ M) was added to the reaction mixture to monitor opioid antagonist blockade of binding. Binding was terminated by filtering homogenates through Whatman GF/B filters. Saturation isotherms were plotted using GraphPad Prism software (GraphPad Software Inc., San Diego, Calif.).

[D-Pen^2, Pen^5]-enkephalin (peptide) had an IC50 in experiment [1] of over 100 µM.

As to ICI-174, 568 (peptide), the IC50 in experiment [1] is over 100 µM.

Consider “[D-Ala^2, N-Me-Phe^4, Gly^5-ol]-enkephalin (peptide)”, for which the IC50 in experiment [1] was over 100 µM.

B1: dynorphin A1-8 (peptide, UniProt P01213 207-214, looked up)
peptide: YGGFLRRI
notes: domain: Dynorphin A1-8; 1-8 counts on dynorphin A, not on the precursor
The molecule B1 had an IC50 in experiment [2] of over 100 µM.

B2: [Met^5]-enkephalin (opioid growth factor) (peptide, UniProt P01210 100-104, looked up)
peptide: YGGFM
modifications: also: [3H] label on radioligand form
notes: domain: [Met^5]-enkephalin; only the pentapeptide stood in the assay; also called OGF; [^3H]-[Met^5]-enkephalin
With B2, the Kd in experiment [3] came to 0.0123 µM; in experiment [4], 0.0028 µM.

In the case of YGGFL (peptide, UniProt P01210 230-234, looked up, domain: Leucine enkephalin) [Leucine enkephalin], in experiment [2], the IC50 was over 100 µM.
